Substitutions are numbered along the chain they refer to.
B1: LK-RB1-1 (antibody, human IgG4 S228P, kappa, V domains shown)
VH: QIQLVQSGPELKKPGETVKISCKASGYSFTNFGMSWVKQAPGKALKWMGWINTYSGVPTYADDFKGRFAFSLETSANTAYLQINNLKNEDSATYFCARRRRTFDGYLCFDYWGQGATLTVSS
VL: QLVLTQSSSASFSLGASAKLTCTLSSQHSTYSIDWYQQQPLKPPKYVMELKTDGSHRTGDGIPDRFSGSSSGADRYLSISNIQPEDEAIYICGVGDTIKEQFVYVFGGGTKVTVLR
B2: LK-RB1-46 (antibody, human IgG4 S228P, kappa, V domains shown)
VH: EVQLQQSGPELVKPGASVKISCKTSGYTFTDYYMNWVKQSHGKSLEWIGDIYPINGDISYNQKFKGKATLTVDKSSSTVYMEIRSLTYEDSAVYYCARLAQTTSGGFDYWGQGTTLTVSS
VL: DIVLTQSPTSLAVSLGQRAIISCKASQSVSFAGTSLMHWYQQKPGQQPKLLIYRASNLKAGVPTRFSGSGSRTDFTLNIHPVEEDDAATYYCQQSREYPMYTFGGGTKLEIKR
B3: LK-RB1-3 (antibody, human IgG4 S228P, kappa, V domains shown)
VH: QVQLQQPGAELVKPGTSVNLSCKASGYTFTSYWIHWVKQRPGRGLEWIGRINPYSSGTRYNEKFKNKATLTVDKPSSTAYMQLTSLTSEDSAVYYCARFDGAPDYFDFWGQGTTLTVSS
VL: DIVMTQSQKFMPTSVGDRVNVTCKASQNVGINVAWYQQKLGQSPKALIYSASYRYSGVPDRFTGSGSGTDFTLTINSVQSEDLADYFCQQYNNYPFTFGSGTKLEIKR
B4: LK-RB1-2 (antibody, human IgG4 S228P, kappa, V domains shown)
VH: QIQLVQSGPELKKPGETVKISCKASGYTFTTYGVSWVKQAPGKGLKWMGWINTYSGVSTYSDDFKGRFAFSLETSASTAYLQIINLKNEDAATYFCSRRRRTYDGYLSFDYWGQGTTLTVSS
VL: DIQMTQSPGSLSASVGETVTITCGASENIYGALNWFQRKPGKSPQLLIYGATNLADGMSSRFSGSGSGRQYSLQISSLRPDDVATYYCQNVLTTPWTFGGGTKVEIKR
B5: LK-RB1-37 (antibody, human IgG4 S228P, kappa, V domains shown)
VH: QVQLQQPGAELVKPGASVKLSCKASGYTFTSYWMHWVKQRPGRGPEWIGRIDPNSGYARYNEKFKNKATLTADKPSSTADMHLSSLTSEDSAVYYCTRSFITTAEWFFDVWGTGTTVTVSS
VL: DILLTQSPAILSVSPGERVSFSCRASQSIGTSIHWYQQRRNGSPRLLIKYTSESISGIPSRFSGSGSGTDFTLSINSVESEDIADYYCQQSNSWPHTFGGGTKLELKR
B6: LK-RB1-40 (antibody, human IgG4 S228P, kappa, V domains shown)
VH: DVQLQESGPGLVQPSQSLSLTCSVTGYSITSGYQWNWIRQLPGNKLEWMAYISFDGSNNYNPSLKNRISITRDTSKNQFFLKLKSVTTEDTATYYCARRDYDGVAYWGQGTLVTVSA
VL: DVLMTQTPLSLPVSLGDQASISCRSSQSIVHSNGNTYLEWYLQKPGQSPKLLIYKVSNRFSGVPDRFSGSGSGTDFTLKISRVEAEDLGVYYCFQGSHVPWTFGGGTKLEIKR
B7: LK-RB1-51 (antibody, human IgG4 S228P, kappa, V domains shown)
VH: QVQIQQSGAELVKPGASVKLSCKASGYTFTEFPIHWIKQRSGQGLEWIGWFYPGSDNMNYNEKFKDKATLTADKSSSTVYMELSRLTSEDSAVYFCARHENAYFYAMDYWGQGTSVTVSS
VL: ENVLTQSPAIMSASLGEKVTMSCRASSSVNYMYWYQQKSDASPKIWIYYTSNLAPGVPARFSGSGSGNSYSLTISSMEGEDAATYYCQQFTSSPFTFGTGTKLEIKR
B8: LK-RB1-50 (antibody, human IgG4 S228P, kappa, V domains shown)
VH: QVQLKQSGPGLVQPSQSLSITCTVSGFSLTSYGVHWVRQSPGKGLEWLGVIWRGGNTDYNAPFVSRLSITKDNSQSQVFFKMNSLEADDTAIYYCAKNSLDVYSSWYFDVWGTGTTVTVSS
VL: QIVLSQSPAILSAFPGEKVTMTCRASSSVSFMHWYQQKPGSSPKPWIYATSNLASGVPARFSGSGSGTSYSLTISRVEAEDAATYYCQQWSSNPLTFGAGTKLELKR
B9: LK-RB1-56 (antibody, human IgG4 S228P, kappa, V domains shown)
VH: QVQLKQSGPGLVQPSQSLSITCSVSGFSLTNYGVHWVRQSPGKGLEWLGVIWRGGSTDNNAAFMSRLSITKDNSKSQVFFKMNSLQADDTAIYYCAKNSDFYGSSWYFDVWGTGTTVTVSS
VL: B8 VL with F14S, S92R, L95P
B10: LK-RB1-58 (antibody, human IgG4 S228P, kappa, V domains shown)
VH: B9 VH with S23T, N31T, N59Y, K81R, I92R, D100L, F101Y
VL: B8 VL with F14S, L95P, A99G, L105I
B11: LK-RB1-28 (antibody, human IgG4 S228P, kappa, V domains shown)
VH: QVQLQQSGPELVKPGTSVKMSCKASGYTFTSHYIHWMKQRPGQGLDWIGWIYPGDGHTKYHEKFKGKATLTADTSSITAYMQLSLLTSEDSAVYYCVYYSDSWFPYWGQGTLVTVSA
VL: DIQMTQSPASLSVSVGETVTITCRASENIYSNLAWYQQKQGKSPQLLVYAATNLADGVPSRFSGSGSGTQYSLKINSLQSEDFGNYFCQHFWGSPWTFGGGTKLEIKR
B12: LK-RB1-44 (antibody, human IgG4 S228P, kappa, V domains shown)
VH: QVQLQQSGTELAKPGASVKLSCKASGYTFTNYWMHWIKQRPGQGLEWIGYVHPTSDYTKYNQKFKDKATLTADKSSSTAYMQLNSLTYEDSAVYYCTRSSLYDTNYVFDSWGQGTTLTVSS
VL: DILLTQSPAILSVSPGERVSFSCRASQSIGRSIHWFQQRTNGSPSLLIKYASESISGIPSRFSGGGSGTDFTLSISNVESEDIADYYCQQSNNWPFTFGSGTKLEIKR
B13: LK-RB1-45 (antibody, human IgG4 S228P, kappa, V domains shown)
VH: B12 VH with K13R, Y32F, H52N
VL: B12 VL with F36Y, S45R
B14: LK-RB1-35 (antibody, human IgG4 S228P, kappa, V domains shown)
VH: DVQLQESGPGLEKPSQSLSLTCSVTGYSITRGYQWNWIRQFPGNKLEWMGYISYDGSNNYNPSLKNRISITRDASKNQFFLKLNSVTTEDTATYYCARRSYNSIDYWGQGTTLTVSS
VL: DIVLTQSPATLSVTPGDSVSLSCRASQSISSNLHWYQQKSHESPRLLIKYASQSISGIPSRFSGSGSGTDFTLSINSVETEDFGMYFCQQSNSWPLTFGAGTKLELKR
B15: LK-RB1-38 (antibody, human IgG4 S228P, kappa, V domains shown)
VH: B6 VH
VL: B14 VL with D1E, S18R, S28N, S31N, N32Y, E42G, L47I
B16: LK-RB1-36 (antibody, human IgG4 S228P, kappa, V domains shown)
VH: B14 VH with T71I, A74T
VL: B14 VL with S31N
B17: LK-RB1-17 (antibody, human IgG4 S228P, kappa, V domains shown)
VH: QVQLQQPGAELVKPGASVKLSCEASGYTFTNYWIHWVKQRPGRGLEWIGRIAPNSGGTKYNEKFKTRATLTVDKASTTAYMQLSSLTSEDSAVYYCARLDGSPYYFDYWGQGTTLTVSS
VL: DIVMTQSQKFMSTSIGDRVSVTCKASQNVDTNVAWYQQKPGQSPKALIYSASYRYSGIPDRFTGSGSGTDFTLTISNVQSEDLAEYFCQQYNSYPYTFGGGTKLEIKR
B18: LK-RB1-31 (antibody, human IgG4 S228P, kappa, V domains shown)
VH: QVQLKESGPGLVAPSQSLSITCTVSGFSLTSYGVSWVRQPPGKGLEWLGIIWGDGSTNYHSALKSRLSISKDNSKSQVFLKLNSLQTEDTATYYCAKPNWDYYAMDYWGQGTSVTVSS
VL: DIQMTQTTSSLSASLGDRVTISCRASQDISNYLNWYLQKPDGTVKLLIYYTSRLHSGVPSRFSGSGSGTDYSLTISNLEQEDIATYFCQQGITLPCTFGGGTKLEIKR
B19: LK-RB1-32 (antibody, human IgG4 S228P, kappa, V domains shown)
VH: QVQLQQSGAELAKPGASVKLSCTASGYTFTTYLMHWVKQRPAQGLEWIGYINPSNDFTKYNQKFKDKATLTADTSSSTAYMQLNSLTFEDSAVYYCARNSDYDPSYWGQGTTLTVSS
VL: DIQMTQSPASLSVSVGETVTITCRASENIYSSLAWYQQKQGKSPQLLVYAATNLADGVPSRFSGSGSGTQYSLKINSLQSEDFGNYYCQHFWGTWAFGGGTKLEIKR
B20: LK-RB1-54 (antibody, human IgG4 S228P, kappa, V domains shown)
VH: DVQLQESGPGLVKPSQSLSLTCSVTGYSITSGFYWNWIRQFPGNKLEWMGHISYDGTNNYNPSLKNRISITRDTSKNLFFLKLNSVTTEDTATFHCARGGYGGSYGFDYWGQGTTLTVSS
VL: B7 VL with I45L, A59V, F95W, T99G
B21: LK-RB1-43 (antibody, human IgG4 S228P, kappa, V domains shown)
VH: EFQLQQSGPELMKPGASVKISCKASGYSFTDYNMNWVKQSNGKSLEWIGIIDPNYGTTTYNQKFKGRATLTVDQSSNTAYMQLNSLTSEDSAVYYCAREGRYSWFAYWGQGTLVTVSA
VL: B11 VL with A9G, S10A, Y30N, N85S, F87H, S94T, W96F, G100S

The binders below were run against T1, human LILRB1 on CHOK1 cells (human, UniProt Q8NHL6 24-650) (assay: FACS binding, CHOK1-hLILRB1 cells).
T1 construct: whole, on cells; also called CHOK1-hLILRB1; CHOK1-LILRB1
T1 sequence (Q8NHL6 24-650): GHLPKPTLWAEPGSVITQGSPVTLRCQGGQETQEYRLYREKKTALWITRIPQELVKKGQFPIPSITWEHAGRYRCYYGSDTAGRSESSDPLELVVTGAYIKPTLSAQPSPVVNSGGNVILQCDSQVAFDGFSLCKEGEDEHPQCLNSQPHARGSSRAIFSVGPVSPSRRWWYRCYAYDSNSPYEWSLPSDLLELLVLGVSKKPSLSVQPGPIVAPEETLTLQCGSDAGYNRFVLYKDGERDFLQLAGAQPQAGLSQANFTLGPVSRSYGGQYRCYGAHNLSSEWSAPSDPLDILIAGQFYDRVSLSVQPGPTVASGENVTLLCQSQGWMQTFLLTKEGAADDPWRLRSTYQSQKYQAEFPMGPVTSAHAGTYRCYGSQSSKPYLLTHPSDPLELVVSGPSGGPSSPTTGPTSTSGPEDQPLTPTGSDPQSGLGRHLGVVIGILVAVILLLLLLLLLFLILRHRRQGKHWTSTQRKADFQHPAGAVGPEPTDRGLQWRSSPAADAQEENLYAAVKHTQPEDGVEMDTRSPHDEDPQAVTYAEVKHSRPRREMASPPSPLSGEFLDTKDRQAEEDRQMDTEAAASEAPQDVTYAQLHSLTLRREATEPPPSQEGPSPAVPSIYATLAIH

Row | EC50 [nM] | binding result | Binder
1 | 0.17 | – | B1
2 | 0.97 | – | B2
3 | 1.14 | – | B3
4 | 0.28 | – | B4
5 | 2.51 | – | B5
6 | – | no binding | B6
7 | – | no binding | B7
8 | 2.01 | – | B8
9 | 1.24 | – | B9
10 | 5 | – | B10
11 | 1.33 | – | B11
12 | 2.79 | – | B12
13 | 1.78 | – | B13
14 | 0.44 | – | B14
15 | 2.45 | – | B15
16 | 0.46 | – | B16
17 | 5.53 | – | B17
18 | 2.91 | – | B18
19 | 2.44 | – | B19

The binders below were run against T2, human LILRB2 on CHOK1 cells (human, UniProt Q8N423 22-597) (assay: FACS binding, CHOK1-hLILRB2 cells).
T2 construct: whole, on cells; also called CHOK1-hLILRB2; CHOK1-LILRB2
T2 sequence (Q8N423 22-597): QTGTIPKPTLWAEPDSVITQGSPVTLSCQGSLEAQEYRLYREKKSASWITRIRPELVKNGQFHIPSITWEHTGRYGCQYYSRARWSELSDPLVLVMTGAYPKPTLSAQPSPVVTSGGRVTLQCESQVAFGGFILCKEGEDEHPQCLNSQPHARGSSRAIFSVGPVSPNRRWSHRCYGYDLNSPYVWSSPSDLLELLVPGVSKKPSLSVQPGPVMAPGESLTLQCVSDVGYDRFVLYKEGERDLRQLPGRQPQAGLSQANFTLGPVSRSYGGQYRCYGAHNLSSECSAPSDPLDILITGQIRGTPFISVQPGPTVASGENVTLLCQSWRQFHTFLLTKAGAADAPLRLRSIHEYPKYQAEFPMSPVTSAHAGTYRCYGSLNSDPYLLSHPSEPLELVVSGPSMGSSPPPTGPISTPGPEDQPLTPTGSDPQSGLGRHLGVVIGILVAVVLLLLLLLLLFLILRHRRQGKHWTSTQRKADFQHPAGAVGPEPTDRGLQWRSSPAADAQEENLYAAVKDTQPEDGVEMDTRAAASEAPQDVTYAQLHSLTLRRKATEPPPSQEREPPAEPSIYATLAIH

Row | binding result | EC50 [nM] | Binder
20 | no binding | – | B1
21 | no binding | – | B2
22 | no binding | – | B3
23 | no binding | – | B4
24 | no binding | – | B5
25 | no binding | – | B6
26 | no binding | – | B7
27 | no binding | – | B20
28 | – | 605 | B8
29 | no binding | – | B9
30 | no binding | – | B10
31 | – | 5.72 | B11
32 | no binding | – | B21
33 | no binding | – | B12
34 | no binding | – | B13
35 | no binding | – | B14
36 | no binding | – | B15
37 | no binding | – | B16
38 | – | 47.4 | B17
39 | no binding | – | B18
40 | no binding | – | B19

Each binder was assayed against T1, human LILRB1 on CHOK1 cells (assay: cell-based RBA (FACS): blocking of HLA-G binding to CHOK1-hLILRB1 cells).

Row | EC50 [nM] | Top Inhibition (%) | Binder
41 | 0.32 | 78 | B1
42 | 2.08 | 87 | B3
43 | 0.44 | 81.9 | B4
